# Measurements taken from PMC4412080.
# Target: mouse anti-human CD4 IgG (BD Biosciences) (mouse)
# Test: ELISA; wells coated overnight at 4°C in PBS with mouse anti-human CD4 IgG (4 μg/mL) or with BSA; blocked with 3% BSA; phage (ID1-mZ 3 × 10^8 to 1 × 10^10 PFU/mL) in 0.1% Tween, 0.1% BSA in PBS for 1 h at r.t.; detected with HRP-conjugated anti-M13 antibody and TMB; mid-point of binding estimated; multivalent display; how the phage was prepared is not told
substance,measurement,value
"ID1-mZ phage (M13KE-derived phage that displays the minimized Z-domain of protein A and a TEV recognition sequence inside pIII, in linker L1)",EC50,0.6 pM
